Laboratory results from article PMC3328432 (PLoS Biology, 2012).

B1: human alanine-glyoxylate aminotransferase (AGT), wild type, major allele haplotype (enzyme, UniProt P21549 1-392, looked up)
chain: MASHKLLVTPPKALLKPLSIPNQLLLGPGPSNLPPRIMAAGGLQMIGSMSKDMYQIMDEIKEGIQYVFQTRNPLTLVISGSGHCALEAALVNVLEPGDSFLVGANGIWGQRAVDIGERIGARVHPMTKDPGGHYTLQEVEEGLAQHKPVLLFLTHGESSTGVLQPLDGFGELCHRYKCLLLVDSVASLGGTPLYMDRQGIDILYSGSQKALNAPPGTSLISFSDKAKKKMYSRKTKPFSFYLDIKWLANFWGCDDQPRMYHHTIPVISLYSLRESLALIAEQGLENSWRQHREAAAYLHGRLQALGLQLFVKDPALRLPTVTTVAVPAGYDWRDIVSYVIDHFDIEIMGGLGPSTGKVLRIGLLGCNATRENVDRVTEALRAALQHCPKKKL
modifications: pyridoxal-5'-phosphate (PLP) covalently bound to Lys209
notes: Alanine-glyoxylate aminotransferase (AGT, EC 2.6.1.44), human, major allele haplotype; C-terminus at Leu392; called the complete protein; 86 kDa homodimer; In the import assay in fibroblasts the protein was EGFP-tagged (pEGFP-C1 derived); the functional row uses this molecule; also called AGT(wt); wt-EGFP-AGT (in the import assay); source: E. coli BL21(DE3) RIL, purified (Ni-NTA, TEV cleavage, …)

Legend:
[1] = molecular target: B1; test: ITC; conditions: both partners purified
[2] = molecular target: B1; test: ITC; conditions: both partners purified; remark: listed apart in the source
[3] = molecular target: B1; test: SEC-MALS; analytical gel filtration and static light scattering (MiniDAWN); complex formed by mixing purified Pex5p(C) and AGT; single components also run; conditions: both partners purified
[4] = molecular target: the molecule itself; test: as above

Binder	stoichiometry N [1]	Kd [2] [µM]	stoichiometry N [3]	stoichiometry N [4]
C-terminal cargo-binding segment of human Pex5p (residues 315-639) (domain or fragment, Peroxisomal import receptor Pex5p, human, residues 315-639 (seven TPR segments and C-terminal helical bundle); In the functional rows the receptor was the endogenous Pex5p of human fibroblasts; this molecule stands for it; also called Pex5p(C); Pex5p receptor; source: E. coli BL21(DE3) RIL, purified (Ni-NTA, TEV cleavage, second Ni-NTA, gel filtration); not shown: His6, N-terminal, cleaved; GST, …) not shown	1	3.5 ± 0.4	1 Pex5p(C) per AGT chain	–
B1	–	–	–	2
